B1: 4E9V0 (VHH)
VHH: QVQLVESGGGSVQAGGSLRLSCAASGDFYCMAWFRQAPGKEREGVATIRSGGRSTYYADSVKGRFTISKDNAKDTLYLQMNSLKPEDTAMYYCAVGVDGNCRNYWGQGTQVTVSS
B2: 2B3 (VHH)
VHH: QVQLVESGGGSVQAGGSLRLSCAASGNTFSFSTYCMGWFRQSPGKEREGSLATIYDGSTAYAGSVKGRFTISVDNAKNILYLQMNNLKPEDTAMYYCAAAKYCMFWSDPSYWGQGTQVTVSS
B3: dupilumab (antibody, V domains shown)
VH: EVQLVESGGGLEQPGGSLRLSCAGSGFTFRDYAMTWVRQAPGKGLEWVSSISGSGGNTYYADSVKGRFTISRDNSKNTLYLQMNSLRAEDTAVYYCAKDRLSITIRPRYYGLDVWGQGTTVTVSS
VL: DIVMTQSPLSLPVTPGEPASISCRSSQSLLYSIGYNYLDWYLQKSGQSPQLLIYLGSNRASGVPDRFSGSGSGTDFTLKISRVEAEDVGFYYCMQALQTPYTFGQGTKLEIKR
B4: reslizumab (antibody, V domains shown)
VH: EVQLVESGGGLVQPGGSLRLSCAVSGLSLTSNSVNWIRQAPGKGLEWVGLIWSNGDTDYNSAIKSRFTISRDTSKSTVYLQMNSLRAEDTAVYYCAREYYGYFDYWGQGTLVTVSS
VL: DIQMTQSPSSLSASVGDRVTITCLASEGISSYLAWYQQKPGKAPKLLIYGANSLQTGVPSRFSGSGSATDYTLTISSLQPEDFATYYCQQSYKFPNTFGQGTKVEVK

Tests used:
IL-4Rα = IL-4Rα (UniProt P24394 26-232, limits assumed); test: cell-based or functional assay
IL-5 = IL-5 (human, UniProt P05113 20-134); test: cell-based or functional assay
Sequence of IL-5 (P05113 20-134 limits assumed): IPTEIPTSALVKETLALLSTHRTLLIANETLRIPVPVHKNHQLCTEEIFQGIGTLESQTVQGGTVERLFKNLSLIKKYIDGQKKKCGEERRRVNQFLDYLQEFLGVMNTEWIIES

EC50, 中和IL-4诱导的TF-1细胞增殖 (IL-4Rα) [nM]	EC50, 中和IL-13诱导的TF-1细胞增殖 (IL-4Rα) [nM]	EC50, 中和IL-5诱导的TF-1细胞增殖 (IL-5) [nM]	Binder
0.281	0.229		B1
		0.336	B2
0.13	0.178		B3
		0.122	B4

Source: CN117138036A (NANJING RONGJIEKANG BIOTECHNOLOGY CO LTD, dated 2023)
